The record followed here is article PMC2233886.

Test [1] addresses CNGA1-eYFP (UniProt Q00194). Nature of the test: FRET or BRET.
Test [2] deals with eCFP-CNGB1 (UniProt Q28181). The test is described as follows: FRET or BRET.
Test [3] has as its target heteromeric CNGA1/CNGB1 channels (UniProt Q00194). The test is described as follows: patch-clamp fluorometry.

Chain of heteromeric CNGA1/CNGB1 channels (Q00194 whole entry K2E, chain 1 of 2): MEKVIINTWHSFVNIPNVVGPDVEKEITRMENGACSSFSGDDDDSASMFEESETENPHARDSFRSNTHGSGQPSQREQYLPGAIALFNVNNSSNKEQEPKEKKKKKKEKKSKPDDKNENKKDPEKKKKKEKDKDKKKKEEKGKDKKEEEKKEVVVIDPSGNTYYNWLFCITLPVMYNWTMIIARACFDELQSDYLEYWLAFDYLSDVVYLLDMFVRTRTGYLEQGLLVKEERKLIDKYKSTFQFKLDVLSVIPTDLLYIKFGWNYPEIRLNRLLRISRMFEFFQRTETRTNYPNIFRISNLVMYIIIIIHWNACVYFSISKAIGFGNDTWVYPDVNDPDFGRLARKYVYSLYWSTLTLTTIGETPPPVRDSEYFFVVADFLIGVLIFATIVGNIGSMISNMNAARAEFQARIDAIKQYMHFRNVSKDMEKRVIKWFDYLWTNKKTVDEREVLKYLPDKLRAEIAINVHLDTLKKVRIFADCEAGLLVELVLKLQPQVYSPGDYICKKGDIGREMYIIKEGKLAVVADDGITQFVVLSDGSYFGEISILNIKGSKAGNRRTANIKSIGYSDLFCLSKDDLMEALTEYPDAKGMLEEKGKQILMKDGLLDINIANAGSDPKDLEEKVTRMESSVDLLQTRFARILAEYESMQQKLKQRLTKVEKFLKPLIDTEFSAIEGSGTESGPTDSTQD
Chain of heteromeric CNGA1/CNGB1 channels (Q28181 whole entry, chain 2 of 2, further chain): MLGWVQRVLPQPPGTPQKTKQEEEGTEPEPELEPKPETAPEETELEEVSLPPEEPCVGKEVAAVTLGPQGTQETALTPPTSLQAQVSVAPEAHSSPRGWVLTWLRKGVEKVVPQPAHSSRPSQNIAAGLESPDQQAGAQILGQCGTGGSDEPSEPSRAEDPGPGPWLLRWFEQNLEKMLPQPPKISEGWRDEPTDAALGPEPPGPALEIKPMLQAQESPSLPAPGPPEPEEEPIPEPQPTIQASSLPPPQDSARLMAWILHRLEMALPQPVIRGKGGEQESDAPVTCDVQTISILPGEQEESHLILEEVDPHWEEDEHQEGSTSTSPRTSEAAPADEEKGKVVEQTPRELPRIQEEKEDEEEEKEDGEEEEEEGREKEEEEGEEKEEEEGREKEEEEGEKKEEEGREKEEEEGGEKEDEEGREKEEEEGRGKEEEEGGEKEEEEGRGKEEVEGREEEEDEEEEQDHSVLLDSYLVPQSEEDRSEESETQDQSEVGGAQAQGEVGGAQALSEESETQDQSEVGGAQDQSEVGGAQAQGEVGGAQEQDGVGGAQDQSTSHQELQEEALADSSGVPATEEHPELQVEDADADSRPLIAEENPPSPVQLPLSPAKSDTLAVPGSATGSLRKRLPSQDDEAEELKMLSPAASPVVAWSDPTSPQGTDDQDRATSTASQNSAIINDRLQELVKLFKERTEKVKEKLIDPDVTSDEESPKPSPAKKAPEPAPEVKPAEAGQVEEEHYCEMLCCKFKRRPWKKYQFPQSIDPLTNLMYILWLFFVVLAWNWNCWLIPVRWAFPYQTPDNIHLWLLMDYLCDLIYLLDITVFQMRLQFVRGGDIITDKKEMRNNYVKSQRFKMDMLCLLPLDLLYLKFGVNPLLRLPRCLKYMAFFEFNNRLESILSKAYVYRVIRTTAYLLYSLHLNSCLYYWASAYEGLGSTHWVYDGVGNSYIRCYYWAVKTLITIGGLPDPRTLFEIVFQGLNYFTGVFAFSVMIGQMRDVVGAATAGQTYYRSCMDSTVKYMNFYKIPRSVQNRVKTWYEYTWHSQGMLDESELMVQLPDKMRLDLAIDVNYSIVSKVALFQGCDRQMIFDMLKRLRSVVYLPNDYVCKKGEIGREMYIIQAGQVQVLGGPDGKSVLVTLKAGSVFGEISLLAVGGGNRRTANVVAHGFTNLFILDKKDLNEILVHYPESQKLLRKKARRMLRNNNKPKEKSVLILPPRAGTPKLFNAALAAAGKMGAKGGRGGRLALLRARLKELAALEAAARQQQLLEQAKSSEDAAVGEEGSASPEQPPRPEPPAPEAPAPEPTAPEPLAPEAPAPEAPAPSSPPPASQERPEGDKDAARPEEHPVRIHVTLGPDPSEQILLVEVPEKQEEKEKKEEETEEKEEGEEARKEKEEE
Chain of CNGA1-eYFP (Q00194 whole entry K2E): as the sequence (Q00194 whole entry K2E, chain 1 of 2) above
Chain of eCFP-CNGB1 (from UniProt Q28181 677-1394) (domain or fragment) (Q28181 whole entry, the tested form may be a part): as the sequence (Q28181 whole entry, chain 2 of 2, further chain) above
Chain of eCFPΔCaM-CNGB1 (Q28181 whole entry, stated change not applied, the tested form may be a part): as the sequence (Q28181 whole entry, chain 2 of 2, further chain) above
Chain of eCFP-CNGB1 (UniProt Q28181) (Q28181 whole entry): as the sequence (Q28181 whole entry, chain 2 of 2, further chain) above

In the case of “eCFP-CNGB1 (from UniProt Q28181 677-1394) (domain or fragment)”, in test [1], the F530/F480 ratio (initial, before Ca2+/CaM) was found to be 1.8. As to “CaM conjugated to the fluorescent dye Alexa-488 (from UniProt P62157 1-149) (natural protein)”, the time constant of eCFP quenching (250 nM CaM-488) in test [2] was determined as 24.6 s. In test [3], this substance gave a time constant of fluorescence decrease (washout in Ca2+-free solution) of 51 s and a time constant of fluorescence increase (250 nM CaM-488) of 18.5 s. On to “eCFPΔCaM-CNGB1 (from UniProt Q28181 702-1394) (domain or fragment)”, for which the reduction in FRET against eCFP-CNGB1 in test [1] worked out at 29%.
